According to article doi:10.1101/830018 (bioRxiv, 2019):

T1: mouse interleukin 11 receptor alpha chain 1 (mouse, UniProt Q64385 24-372)
T1 sequence (looked up): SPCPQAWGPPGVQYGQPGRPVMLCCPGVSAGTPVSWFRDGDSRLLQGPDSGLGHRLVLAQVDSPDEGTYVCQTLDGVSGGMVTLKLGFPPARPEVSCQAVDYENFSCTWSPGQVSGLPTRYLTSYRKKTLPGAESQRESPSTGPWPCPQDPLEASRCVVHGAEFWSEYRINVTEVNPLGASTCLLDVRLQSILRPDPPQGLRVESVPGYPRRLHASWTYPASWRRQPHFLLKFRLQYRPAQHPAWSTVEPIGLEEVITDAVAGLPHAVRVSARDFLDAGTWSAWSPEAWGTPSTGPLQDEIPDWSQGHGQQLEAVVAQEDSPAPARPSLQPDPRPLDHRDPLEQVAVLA


Biological target: T1, mouse interleukin 11 receptor alpha …
Assay: SPR

Kd [nM] | Binder
72 | recombinant human interleukin 11 (ligand, UniProt P20809 22-199, looked up) PGPPPGPPRVSPDPRAELDSTVLLTRSLLADTRQLAAQLRDKFPADGDHNLDSLPTLAMSAGALGALQLPGVLTRLRADLLSYLRHVQWLRRAGGSSLKTLEPELGTLQARLDRLLRRLQLLMSRLALPQPPPDPPAPPLAPPSSAWGGIRAAHAILGGLHLTLDWAVRGLLLLKTRL
94 | recombinant mouse IL11 (ligand, UniProt P47873 22-199, looked up) PGPPAGSPRVSSDPRADLDSAVLLTRSLLADTRQLAAQMRDKFPADGDHSLDSLPTLAMSAGTLGSLQLPGVLTRLRVDLMSYLRHVQWLRRAGGPSLKTLEPELGALQARLERLLRRLQLLMSRLALPQAAPDQPVIPLGPPASAWGSIRAAHAILGGLHLTLDWAVRGLLLLKTRL
